Source: US20240132578A1

How the values were obtained:
Assay in all cases: cell-based or functional assay
[1] = biological target: HIV-1 envelope glycoprotein (Env) of isolate MGRM-Chronic-B-010, on pseudovirus (HIV-1)
[2] = biological target: HIV-1 envelope glycoprotein (Env) of isolate 92WR026, subtype A (HIV-1)
HIV-1 JRFL Env (HIV-1) = biological target: HIV-1 JRFL Env (HIV-1)
[3] = biological target: HIV-1 MGRM-D-001 Env (HIV-1)
HIV-1 APV13 Env (HIV-1) = biological target: HIV-1 APV13 Env (HIV-1)
[4] = biological target: HIV-1 envelope glycoprotein (Env) of isolate 92BR020, on pseudovirus (HIV-1)
[5] = biological target: HIV-1 Env of isolate MGRM-F1-014 (pseudovirus) (HIV-1)
[6] = biological target: HIV-1 JR-CSF Env I323A (HIV-1 (isolate JR-CSF, clade B)) (UniProt P20871)
[7] = biological target: HIV-1 JR-CSF Env K305A (HIV-1 (isolate JR-CSF, clade B)) (UniProt P20871)
[8] = biological target: HIV-1 93IN905 envelope glycoprotein (Env) on pseudovirus (HIV-1)
[9] = biological target: HIV-1 APV6 envelope glycoprotein (Env) on pseudovirus (HIV-1)
[10] = biological target: HIV-1 JRFL envelope glycoprotein (Env) on pseudovirus (HIV-1)
[11] = biological target: HIV-1 APV17 envelope glycoprotein (Env) on pseudovirus (HIV-1)
[12] = biological target: HIV-1 92TH021 envelope glycoprotein (Env) on pseudovirus (HIV-1)
[13] = biological target: HIV-1 MGRM-C-028 envelope glycoprotein (Env) on pseudovirus (HIV-1)
[14] = biological target: HIV-1 92UG024 envelope glycoprotein (Env) on pseudovirus (HIV-1)
[15] = biological target: HIV-1 MGRM-D-001 envelope glycoprotein (Env) on pseudovirus (HIV-1)
[16] = biological target: HIV-1 NL43 envelope glycoprotein (Env) on pseudovirus (HIV-1)
[17] = biological target: HIV-1 MGRM-C-027 envelope glycoprotein (Env) on pseudovirus (HIV-1)
[18] = biological target: HIV-1 MGRM-C-026 envelope glycoprotein (Env) on pseudovirus (HIV-1)
[19] = biological target: HIV-1 93UG077 envelope glycoprotein (Env) on pseudovirus (HIV-1)
[20] = biological target: HIV-1 CMU02 envelope glycoprotein (Env) on pseudovirus (HIV-1)
[21] = biological target: HIV-1 APV13 envelope glycoprotein (Env) on pseudovirus (HIV-1)
[22] = biological target: HIV-1 JR-CSF Env N295A (HIV-1 (isolate JR-CSF, clade B)) (UniProt P20871)
[23] = biological target: HIV-1 JR-CSF Env T341A (HIV-1 isolate JR-CSF) (UniProt P20871)
[24] = biological target: HIV-1 JR-CSF Env F317A (HIV-1 (isolate JR-CSF, clade B)) (UniProt P20871)
[25] = biological target: HIV-1 JR-CSF Env T202A (HIV-1 (isolate JR-CSF)) (UniProt P20871)
[26] = biological target: HIV-1 JR-CSF Env I309A (HIV-1 (isolate JR-CSF, clade B)) (UniProt P20871)
[27] = biological target: HIV-1 JR-CSF Env D325A (HIV-1 isolate JR-CSF) (UniProt P20871)
[28] = biological target: HIV-1 JR-CSF Env R327A (HIV-1 isolate JR-CSF) (UniProt P20871)
[29] = biological target: HIV-1 94UG103 envelope protein (Env) on pseudotyped virus (HIV-1 strain 94UG103)
[30] = biological target: HIV-1 IAVI_C22 envelope protein (Env) on pseudotyped virus (HIV-1 strain IAVI C22)
[31] = biological target: aMLV envelope (negative control)
[32] = biological target: HIV-1 Env of isolate CMU02 (CRF01_AE) (HIV-1)
[33] = biological target: HIV-1 Env of isolate 92UG024 (Clade D) (HIV-1)
[34] = biological target: HIV-1 Env of isolate NL43 (positive control) (HIV-1)
[35] = biological target: HIV-1 Env of isolate 93UG077 (Clade A) (HIV-1)
[36] = biological target: HIV-1 92TH021 envelope protein (Env) on pseudotyped virus (HIV-1 strain 92TH021)

4877_D15 (PGT-122) (antibody)
IC50, pseudovirus neutralization [1]: 0.018 µg/mL | IC50, pseudovirus neutralization [2]: 0.036 µg/mL | IC50, pseudovirus neutralization (HIV-1 JRFL Env (HIV-1)): 0.0471 µg/mL | IC50, pseudovirus neutralization [3]: 0.867 µg/mL | IC50, pseudovirus neutralization (HIV-1 APV13 Env (HIV-1)): 0.992 µg/mL | IC50, pseudovirus neutralization [4]: 0.021 µg/mL | IC50 (µg/mL), pseudovirus neutralization [5]: 0.195 µg/mL

5114_A19 (PGT-128) (antibody)
Fold IC50 increase relative to wild-type [6]: 3 fold | Fold IC50 increase relative to wild-type [7]: 1.8 fold

PGT-141 (4964_G22; 4993_K13) (antibody)
IC50, pseudovirus neutralization [8]: 0.0016 µg/mL | IC50, pseudovirus neutralization [9]: 5.08 µg/mL | IC50, pseudovirus neutralization [10]: > 10 µg/mL | IC50, pseudovirus neutralization [11]: 0.616 µg/mL | IC50, pseudovirus neutralization [12]: 0.0019 µg/mL | IC50, pseudovirus neutralization [13]: 2.35 µg/mL | IC50, pseudovirus neutralization [14]: > 10 µg/mL | IC50, pseudovirus neutralization [15]: > 10 µg/mL | IC50, pseudovirus neutralization [16]: 0.856 µg/mL | IC50, pseudovirus neutralization [17]: 0.822 µg/mL | IC50, pseudovirus neutralization [18]: > 10 µg/mL | IC50, pseudovirus neutralization [19]: > 10 µg/mL | IC50, pseudovirus neutralization [20]: > 10 µg/mL | IC50, pseudovirus neutralization [21]: > 10 µg/mL

5136_H01 (PGT-131) (antibody)
Fold IC50 increase relative to wild-type [22]: 2.1 fold | Fold IC50 increase relative to wild-type [23]: 1.3 fold | Fold IC50 increase relative to wild-type [24]: 96 fold | Fold IC50 increase relative to wild-type [6]: 38 fold | Fold IC50 increase relative to wild-type [25]: 2.7 fold | Fold IC50 increase relative to wild-type [26]: 8.8 fold | Fold IC50 increase relative to wild-type [27]: > 170 fold | Fold IC50 increase relative to wild-type [28]: 19 fold

1443_C16 (PG16) (TCN-116) (antibody)
IC50, Neutralizing Antibody Assay, Virus/Ab Incubation 1 hour [29]: 0.0211 µg/mL | IC50, Neutralizing Antibody Assay, Virus/Ab Incubation 18 hour [29]: 0.0085 µg/mL | IC50, Neutralizing Antibody Assay, Virus/Ab Incubation 1 hour [30]: 0.114 µg/mL | IC50, Neutralizing Antibody Assay, Virus/Ab Incubation 18 hour [30]: 0.106 µg/mL | IC90 (neutralization of pseudovirus) [31]: > 50 µg/mL | IC90 (neutralization of pseudovirus) [32]: > 50 µg/mL | IC90 (neutralization of pseudovirus) [33]: > 50 µg/mL | IC90 (neutralization of pseudovirus) [34]: > 50 µg/mL | IC90 (neutralization of pseudovirus) [35]: > 50 µg/mL | IC50, Neutralizing Antibody Assay, Virus/Ab Incubation 1 hour [36]: 0.136 µg/mL | IC50, Neutralizing Antibody Assay, Virus/Ab Incubation 18 hour [36]: 0.0435 µg/mL

4E10 (antibody)
IC90 (neutralization of pseudovirus) [31]: > 50 µg/mL | IC90 (neutralization of pseudovirus) [32]: 13.4 µg/mL | IC90 (neutralization of pseudovirus) [33]: 23.7 µg/mL | IC90 (neutralization of pseudovirus) [34]: 29.6 µg/mL | IC90 (neutralization of pseudovirus) [35]: > 50 µg/mL

2G12 (antibody)
IC90 (neutralization of pseudovirus) [31]: > 50 µg/mL | IC90 (neutralization of pseudovirus) [32]: > 50 µg/mL | IC90 (neutralization of pseudovirus) [33]: 7.57 µg/mL | IC90 (neutralization of pseudovirus) [34]: 15.8 µg/mL | IC90 (neutralization of pseudovirus) [35]: > 50 µg/mL

PGT-142 (4995_E20) (antibody)
IC50, pseudovirus neutralization [8]: 0.0017 µg/mL | IC50, pseudovirus neutralization [9]: 5.42 µg/mL | IC50, pseudovirus neutralization [10]: > 10 µg/mL | IC50, pseudovirus neutralization [11]: 0.393 µg/mL | IC50, pseudovirus neutralization [12]: 0.0022 µg/mL | IC50, pseudovirus neutralization [13]: 1.23 µg/mL | IC50, pseudovirus neutralization [14]: > 10 µg/mL | IC50, pseudovirus neutralization [15]: > 10 µg/mL | IC50, pseudovirus neutralization [16]: 0.712 µg/mL | IC50, pseudovirus neutralization [17]: 0.272 µg/mL | IC50, pseudovirus neutralization [18]: > 10 µg/mL | IC50, pseudovirus neutralization [19]: > 10 µg/mL | IC50, pseudovirus neutralization [20]: > 10 µg/mL | IC50, pseudovirus neutralization [21]: > 10 µg/mL

b12 (antibody)
IC90 (neutralization of pseudovirus) [31]: > 50 µg/mL | IC90 (neutralization of pseudovirus) [32]: 34.2 µg/mL | IC90 (neutralization of pseudovirus) [33]: > 50 µg/mL | IC90 (neutralization of pseudovirus) [34]: 0.28 µg/mL | IC90 (neutralization of pseudovirus) [35]: > 50 µg/mL
